Results published in the nanobody polyreactivity screen of Harvey et al. (2022).

Test: yeast display, Sf9 membrane polyspecificity reagent, FACS + sequencing; frameworks hold sequencing errors
How it was run: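 Galactose induction of a Saccharomyces cerevisiae BJ5465 synthetic nanobody display library ran 36–48 hours. The cells were then stained for 1 hour at 4 °C with 10% biotinylated, detergent-solubilized Sf9 membrane reagent, pulled down on streptavidin microbeads and FACS-sorted into low and high (top ~1%) gates on expression and reagent-binding fluorescence. Labels for polyreactivity follow the gate of origin.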

Sequence	polyreactivity (PSR sort gate)
QVQLVESGGGLVQAGGSLRLSCAASGRIFPSNAMGWYRQAPGKERELVAAISVSGGSTYYADSVKGRFTISRDNAKNTVYLQMNSLKPEDTAVYYCAVRAWDPYTGKSDYWGQGTQVTVSS	low polyreactivity
QVQLVESGGGLVQAGGSLRLSCAASGSTFFLYAMGWYIQAPGKERELVAAISGSGGTTYYADSVKGRFTISRDNAKNTVYLQMNSLKPEDTAVYYCNKDYYPGSYDYWGQGTQVTVSS	low polyreactivity
QVQLVESGGGLVQAGGSLRLSCAASGRIFDYNTMGWYRQAPGKERELVAAITGGTGSTYYADSVKGRFTISRDNAKNTVYLQMNSLKPEDTAVYYCAAGFHKRVTPEILYDYWGQGTQVTVSS	low polyreactivity
QVQLVESGGGLVQAGGSLRLSCAASGSILTHYAMGWYRQAPGKERELVAAITWRGGSTYYADSVKGRFTISRDNAKNTVYLQMNSLKPEDSAVYYCNADYFGGGDYWGQGTQVTVSS	low polyreactivity
QVQLVESGGGLVQAGGSLLLSCAASGFIFAGYAMGWYRQAPGKERELVAPISKRGGTTYYADSVKGRFTISRDNAKNTVYLQMNSLKPEDTAVYYCNAKRTYRVVWASSYEYDYWGQGTQVTVSS	high polyreactivity
QVQLVESGGGLVQAGGSLRLSCAASGIIFGVYAMGWYRQAPGKERELVAAIDGNGSSTYYADSVKGRFISSRDNAKTTVYLQMNSLKPEDTAVYYCAADLVWVSTSYYYWGQGTQVTVSS	low polyreactivity
QVQLVESGGGLVQAGGSLRLSCAASGSTFQRNAMGWYRQAPGKERELVAVITRRGASTYYADSVKGRFTISRDNAKNTVYLQMKSLKPEDTAVYYCNKVPYGRDHHLLFDYWGQGTQVTVSS	high polyreactivity
QVQLVESGGGLVQAGGSLRLSCAASGFTLVKYVMGWYRQAPGKERELVAAINRSGTSTYYADSVKGRFTISRDNAKYSVYLQMNSLKPEDTAVYYCNADWYRKRNYWGQGTQVTVSS	high polyreactivity
QVQLVESGGGLVQAGGSLRLSCAASGSTSAYYVMGWYRQAPGKERELVAAIDFSGDSTYYADSVKGRFTISRDNAKNTVYLQMNSLKPEDTAVYYCAAELFNYSSLVSYEYWGQGTQVTVSS	high polyreactivity
QVQLVESGGGLFQAGGSLRLSCAASGGIFFYYAMGGYRQAPGKERELVAAIRTNGGTTYYADSVKGRFTISRDNAKNTVYLQRNRLKTEDTAVYYCPAQPGGYYVRGEFDYWGQGTQVTLSS	low polyreactivity
QVQLVESGGGLVQAGGSLRLSCAASGYTFDGYPRGWYRQAPGKERELVAVITKSGGRTYYADSVKGRFTNSRDNAKNTVYLQMNSLKPEDTAVYYCAADDSGTKDIVEGEYWGQGTQVTVSS	high polyreactivity
QVQLVESGGGLVQAGGSLRLSCAASGIIFTKYVMGWYRQAPGKERELVAAINTDGGSTRYADSVKGRFTISRDNAKNTVYLQMNSLIPEDTAVYYCNTVWFYGAKYDYWGQGTQVTVSS	high polyreactivity
QVQLVESGGGLVQAGGSLRLSCAASGFIFAWYAMGWYRQAPGKERELVAAITSSGTSTYYADSVKGRFTISRDNAKNTVYLQMNSLTPEDTAVYYCAAVTKRYLAYDYWGQGTQVTVSS	high polyreactivity
QVQLVESGGCLVQAGGSLRLSCAASGSTFRGNDMGWYRQAPGKEREFVAAITVSGGSTYYADSVKGRFTISRDNAKNTVYLQMNSLKPDDTAVYFCDARYLRYSSKTIQNEDYWGLGTQVTVSS	high polyreactivity
QVQLVESGGGLVQAGGSLRLSCAASGIIFNTYAMGWYRQAPGKERELVAAIDSRDASTYADSVKGRYTISRDNAKNTVYLQMNSLIPEDTAVYYCAATHNVDLISEVYYWGQGTQVTVSS	low polyreactivity
QVQLVESGGGLVQAGGSLRLSCAASGSTFGPNAMGWYRQAPGNERELVAAITWSGDSTYYADSVKGRFTISRDNAKNTVYLQMNSLKPEDTAVYYCNTDRNVWYAGYDYWGQGTQVSVSS	low polyreactivity
HAQLQESGGGLVQAGGSLRRSCAASGSIFRFSRMGWYRRAPGKERELVASIGFGSITYYADRVKGRFTISRDNANNTVYLQMNSLKPEDTAVYYCAVQVQDESWLDYWGQGTQVTVSC	low polyreactivity
QVQLVESGGGLVQAGGSLRLSCAASGSTLRRYAMGWYRQAPGKERELVAAITYRSGSTYYADSVKGRFTISRDNAKNTVYLQMNSLKPEDTAVYYCAKVGYVSKYWFAGDYWGQGTQVTVSS	high polyreactivity
QVQLVESGVGLVQAGGSHRLSCAASGSIFGFYVMGWYRQAPGKERELVAAISRGGTRTYYADSVKGRFTISRDNAKNTVYLQMNSLKPEDTAVYYCAKYDGGSGTGPRSDYWGQGTQVTVSS	high polyreactivity
QVQLVESGGGLVQAGGSLRLSCAASGGTFGYYAMGWYRQAPGKDRELVAGINYSGGRTYYADSVKGRFTISRDNAKNTVYLQMNSLKPEDTAVYYCAAQAYVGYRGYDYWGQGTQVTVSS	high polyreactivity
QVQLVESGGGLVQAGGSLRLSCAASGSTFEAYAMGWYRQAPGKERELVAAIRSSGSTSYADSVKGRFTISRDNAKNTVYLQMNSLKPVDTAVYYCAARVRGYPRYKRDYWGQGTQVTVSS	high polyreactivity
QVPLVESGGGLVQAGGSLRLSCAASGRIFIQNTMGWDSQAPGKERELVAAINRSAGSTYYADSVKGRFTISRDNAKNTVYLQMNSLKTEDTAVYYCAAYASRRYGYWGQVTQVTVSS	high polyreactivity

Sequence	polyreactivity (PSR sort gate)
QVQLVESGGGLVQAGGSLRLSCAASGFIFKPYAMGWYRQAPGKERELVAAITYSGSSTYYADSVKGRFTISRDNAKNTVYLQMNSLKPEDTAVYYCAARDWSHPRRLFYWGQGTQVTVSS	high polyreactivity
QVQLVESGGGLVQAGGSLRLSCAASGSTFSRYAMGWYRQAPGKERELVAAISSSGGSTYYADSVKGRFTISRDNAKNTVYLQMNSLKPEDTAVYYCAVAVNGVSRIKYYYWGQGTQVTVSS	high polyreactivity
QVQLGESGGGLVQAGGSLRLSCAASGFSFWYYPMGWYRQAPGKERELVASIRYSGDSTSYADSVKGRFTISRDNAKNNVYFQMNSLKAEDTEVYYSAAVRYWYASYYTYEYWGQGTQVSVSS	high polyreactivity
QVQLVESGGGLVQAGGSLRLSCAASGSTFYYYAMGWYRQAPGKESELVAAISPSGDSTYNADSVKGRFTISRENSKNTVYLQMNSLKPEDTAVYYFAAQYYFYPQEFDDWGQGTQVTVSS	low polyreactivity
QVQLVESGGGLVQAGGSLRLSCAASGLTLYKNGMGWYRQAPGKERELVARITSGGRTYYADSVKGRFTISRDNAKNTVYLQMNSLKPEDTAVYYCNAVKSYASLCAGFYYWGQGTQVTVSS	high polyreactivity
QVQLVESGGGLDQAGGSLRLSCAASGRTFGGYAMGWYRQAPGKERELVARISRSGGSTYYADSVKGRFTISRDNAKNTVYFQMNSLKPEDTAVYYCNTGLRTAYGWPQDDYWGQGTQVTVSS	low polyreactivity
QVQLVESGGGLVQAGGSLRLSCAASGLIIYYYAMGWYRQAPGKERELVAAISGSSGASTYYADSVKGRFTISRVNAKNTVYIQMNSLKPEDSAVYYCAADRGYWRYDYWGQGTQVTVSS	low polyreactivity
QVQLVESGGRLVQAGGSLRLSCAASGSIFRYYALGWYRQAPGKERELVAAISWSGGSTYYADSVKGRFTISRDNAKNTVYLQMNSLKPEDTAVYYCATTPGVWSTGGTNGFGYWGQGNQVTVSS	high polyreactivity
QVQLVESGGGLVQAGGSLRLSCDASGFIFVRYAMGWYRQAPGKEREFVAAISRSGGSTYYADSVKGRFTISRDNAKNTVYLQMNSLKPEDTAVYYCARQYASPRREFEYWGQGTQVTVSS	high polyreactivity
QVQLVESGGGLVQAGGSLRLSCAASGSTFRSNAMGWYRQAPGKERVLVAAISRSGGSTYYADSVKGRFTISRDNAKNSVYLQMNSLKPEDTAVYYCAGRYSRDPRTGDYGYCGQGTQVTVSS	low polyreactivity
QVQLVESGGGLVQAGGSLRLSCAASGGIFRFNAMGWYRQAPGKERELVAGISSTYYADSVKGRFTISRDNAKNTVYLQMNSLKPEDTAVYYCAAAGPEEHGYTYPGNNQMEYWGQGTQVTVSS	low polyreactivity
QVQLVESGGGLVQAGGSLRLSCAASGYIFKYNAMGWYRQAPGKERELVAAISSGGSTYYADSVKGRFTISRDNAKNTVYLQMNSLKPEDTAVYYCAARGVRSARIYYYWGQGTQVTVSS	high polyreactivity
QVQLVESGGGLVQAGGSLRLSCAASGIIFYKYAMGWYRQAPGKERELVAAINWSGGSTYYADSVKGRFTISRDNAKNTVYLQMNSLKPEDTAVYYCAADRTDFEYYYWGQGTQVTVSS	low polyreactivity
QVQLVESGGGLVQAGGSLRLSCAATGGIFDYYAMGWYRQAPGKERALVAAIRGGGSTNYADSVKGRFTISRDNAKNTVYLQMNSLKPEDTAVYYCAKDSPFTSVTVLAPIIYDSWGQGTQVTVSS	low polyreactivity
QVQLVESGGGLVQAGGSLRLSCAASGSIFWYYAMGWYRQAPGKERELVAAISISGSTYYADSVKGRFTISRDNAKNTVYLQMNSLKPEDTAVYYCAARKFFWRSNYDYWGQGTQVTVSS	low polyreactivity
QVQLVESGGGLVQAGGSLRLSCAASGSTFRYYAMGWYRLAPGKERELVAAITASGTSTYYADSVKGRFTISRDNAKNTVYLQMNSLKPEDTAVYYCAARWRYGYYWGQGTQVTVSS	high polyreactivity
QVQLVESGGGLVQAGGSLRLSCAASGRNFPAYAMGWYRQAPGKERELVASIRRGGITYADSVKGRFTISRDNAKNTVYLQMNRLKPEDSSGYFCNADFRGWGYHMDYWGQGTQVTVSS	low polyreactivity
QVQLVESGVRLVQAVGSHRLSCAASASIIDGNSMGWYRQAPGKERELGAVISSRGTRTYYADSVKGRFTISRDNAKKTVYLQMNILKPEDTAVYYCNTRTSDLNGSGDYWGLGTQVTVSS	high polyreactivity
QVQHVESGGGLVQAGGSLRLSCAASGGIFSIYTRGWYRQAPGKERELVAAITSGGNTNYADSVKGRFTISRDNAKNTVYLQMNSLKPEDTAVYYCAKTYTEYSVTRSGARMDYWGQGTQVTVSS	low polyreactivity
QVQLVESGGGLVQAGGSLRLSCAASGRIFKSYAMGWYRQAPGKEWELVAAISRGGRTNYADSVKGRFTISRDNAKNTVYLHMHSLKPEDTAVYYCAAYHRDRNSGFDYWGQGTQGTVSS	high polyreactivity
QVQLVESGGGLVQAGGSLRLSCAASGFTFARYAMGWYRQAPGKERELVAAITSGSSTYYADSVKGRFTISRDNAKNTVYLQMNSLKPEDTAVYYCAARSFLQSYYYWGQGTQVTVSS	high polyreactivity
